Starred links: 1 amine or outer side, 2 acyl side, 3 side chain; linkers in the order of their positions; H or OH if unused. Positions of bridges follow the written chain, without caps; N, C: chain ends. Non-standard residues stand in square brackets, D forms with d. Primed or numbered codes have the meaning given here. (CH2CMe2CO2H)TriAzDap = (S)-3-(1-(2-amino-2-carboxyethyl)-1H-1,2,3-triazol-4-yl)-2,2-dimethylpropanoic acid, CC(C)(Cc1cn(C[C@H](N[*:1])C(=O)[*:2])nn1)C(=O)[*:3]; (CH2CMe2CO2H)TriAzDab = (S)-2-amino-4-(4-(2-carboxy-2-methylpropyl)-1H-1,2,3-triazol-1-yl)butanoic acid, CC(C)(Cc1cn(CC[C@H](N[*:1])C(=O)[*:2])nn1)C(=O)[*:3]; (CMe2CO2H)TriAzDab = (S)-2-amino-4-(4-(2-carboxypropan-2-yl)-1H-1,2,3-triazol-1-yl)butanoic acid, CC(C)(C(=O)[*:3])c1cn(CC[C@H](N[*:1])C(=O)[*:2])nn1; (CMe2CO2H)TriAzDap = (S)-2-amino-3-(4-(2-carboxypropan-2-yl)-1H-1,2,3-triazol-1-yl)propanoic acid, CC(C)(C(=O)[*:3])c1cn(C[C@H](N[*:1])C(=O)[*:2])nn1; PyrS2″ = (S)-3-amino-1-((pent-4-en-1-yloxy)carbonyl)pyrrolidine-3-carboxylic acid (stapling residue), C=CCCCOC(=O)N1CC[C@@](N[*:1])(C(=O)[*:2])C1; (2COOHPh)TriAzDap = (S)-2-(1-(2-amino-2-carboxyethyl)-1H-1,2,3-triazol-4-yl)benzoic acid, O=C([C@H](Cn1cc(-c2ccccc2C(=O)[*:3])nn1)N[*:1])[*:2]; (CH2CH2CO2H)TriAzDab = (S)-2-amino-4-(4-(2-carboxyethyl)-1H-1,2,3-triazol-1-yl)butanoic acid, O=C([C@H](CCn1cc(CCC(=O)[*:3])nn1)N[*:1])[*:2]; (CH2CH2CO2H)TriAzDap = (S)-2-amino-3-(4-(2-carboxyethyl)-1H-1,2,3-triazol-1-yl)propanoic acid, O=C([C@H](Cn1cc(CCC(=O)[*:3])nn1)N[*:1])[*:2]; (CH2CO2H)TriAzDab = (S)-2-amino-4-(4-(carboxymethyl)-1H-1,2,3-triazol-1-yl)butanoic acid, O=C([C@H](CCn1cc(CC(=O)[*:3])nn1)N[*:1])[*:2]; B5(4) = 2,2-bis(4-pentenyl)glycine = 2-amino-2-(pent-4-en-1-yl)hept-6-enoic acid (stitching residue), C=CCCCC(CCCC=C)(N[*:1])C(=O)[*:2]; (2COOH4NH2Ph)Dap = (S)-5-amino-2-((2-amino-2-carboxyethyl)amino)benzoic acid, Nc1ccc(NC[C@H](N[*:1])C(=O)[*:2])c(C(=O)[*:3])c1; (2COOHPh)TriAzDab = O=C([C@H](CCn1cc(-c2ccccc2C(=O)[*:3])nn1)N[*:1])[*:2]; Phe(3-COOH) = N[C@@H](Cc1cccc(C(=O)O)c1)C(=O)O; 2F3MeF = Cc1cccc(C[C@H](N[*:1])C(=O)[*:2])c1F; Phe(2-CF3) = N[C@@H](Cc1ccccc1C(F)(F)F)C(=O)O; Bta = N[C@@H](Cc1csc2ccccc12)C(=O)O; αAllylPro = C=CC[C@@]1(C(=O)O)CCCN1; tBuAla = CC(C)(C)C[C@H](N)C(=O)O; 3Thi = N[C@@H](Cc1ccsc1)C(=O)O; PyrS2(4) = not defined here
Target: T1, Bcat-Halo (UniProt P35222 1-781)
T1 sequence (looked up): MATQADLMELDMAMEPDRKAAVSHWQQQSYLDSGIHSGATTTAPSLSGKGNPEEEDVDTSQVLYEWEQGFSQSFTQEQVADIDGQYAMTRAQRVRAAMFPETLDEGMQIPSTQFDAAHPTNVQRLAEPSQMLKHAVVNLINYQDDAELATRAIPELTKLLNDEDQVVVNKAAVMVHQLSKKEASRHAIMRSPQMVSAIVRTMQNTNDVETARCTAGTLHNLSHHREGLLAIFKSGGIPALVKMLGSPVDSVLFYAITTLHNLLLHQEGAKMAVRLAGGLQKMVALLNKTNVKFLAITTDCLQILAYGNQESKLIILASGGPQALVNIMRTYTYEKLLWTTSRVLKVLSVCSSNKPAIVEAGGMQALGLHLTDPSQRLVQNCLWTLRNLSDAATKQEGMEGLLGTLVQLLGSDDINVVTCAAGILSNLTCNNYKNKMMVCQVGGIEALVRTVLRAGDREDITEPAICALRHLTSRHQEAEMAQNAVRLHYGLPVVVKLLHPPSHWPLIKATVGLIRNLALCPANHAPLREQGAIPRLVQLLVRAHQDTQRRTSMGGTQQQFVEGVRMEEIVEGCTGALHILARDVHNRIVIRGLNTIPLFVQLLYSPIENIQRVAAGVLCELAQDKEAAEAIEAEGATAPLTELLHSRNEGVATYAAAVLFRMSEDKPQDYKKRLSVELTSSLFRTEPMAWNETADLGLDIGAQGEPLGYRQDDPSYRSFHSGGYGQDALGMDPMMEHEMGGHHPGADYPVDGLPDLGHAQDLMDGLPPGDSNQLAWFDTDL
Assay: cell-based or functional assay

Row | Binder | NanoBRET Abs IC50
1 | Ac-[αAllylPro]D[tBuAla][B5(4)]D[(CMe2CO2H)TriAzDap]AAFL[PyrS2″][3Thi][Bta]Q-NH2 (staple 1-4, 4-11) [I-2085] | 6.2 µM
2 | Ac-[αAllylPro]D[tBuAla][B5(4)]D[(2COOHPh)TriAzDab]AAFL[PyrS2(4)][3Thi][Bta]Q-NH2 (staple 1-4, 4-11; not fully specified; reading uncertain) [I-2081] | 11.6 µM
3 | Ac-[αAllylPro]D[tBuAla][B5(4)]D[Phe(3-COOH)]AAFL[PyrS2(4)][2F3MeF][Bta][dQ]-NH2 (staple 1-4, 4-11; reading uncertain) [I-2089] | 2.9 µM
4 | Ac-[αAllylPro]D[tBuAla][B5(4)]D[(2COOH4NH2Ph)Dap]AAFL[PyrS2″][3Thi][Bta]Q-NH2 (staple 1-4, 4-11) [I-2087] | 6.5 µM
5 | Ac-[αAllylPro]D[tBuAla][B5(4)]D[(CH2CMe2CO2H)TriAzDab]AAFL[PyrS2″][3Thi][Bta]Q-NH2 (staple 1-4, 4-11) [I-2077] | 12.3 µM
6 | Ac-[αAllylPro]D[tBuAla][B5(4)]D[Phe(3-COOH)]AAFF[PyrS2″][3Thi][Bta][dQ]-NH2 (staple 1-4, 4-11) [I-2092] | 4.4 µM
7 | Ac-[αAllylPro]D[tBuAla][B5(4)]D[Phe(3-COOH)]AAFL[PyrS2″][Phe(2-CF3)][Bta][dA]-NH2 (staple 1-4, 4-11) [I-2091] | 6.2 µM
8 | Ac-[αAllylPro]D[tBuAla][B5(4)]D[(CH2CO2H)TriAzDab]AAFL[PyrS2″][3Thi][Bta]Q-NH2 (staple 1-4, 4-11) [I-2078] | 11.7 µM
9 | Ac-[αAllylPro]D[tBuAla][B5(4)]D[(CH2CH2CO2H)TriAzDap]AAFL[PyrS2″][3Thi][Bta]Q-NH2 (staple 1-4, 4-11) [I-2082] | 7.7 µM
10 | Ac-[αAllylPro]D[tBuAla][B5(4)]D[(CH2CH2CO2H)TriAzDab]AAFL[PyrS2″][3Thi][Bta]Q-NH2 (staple 1-4, 4-11) [I-2076] | 14.1 µM
11 | Ac-[αAllylPro]D[tBuAla][B5(4)]D[(CH2CMe2CO2H)TriAzDap]AAFL[PyrS2″][3Thi][Bta]Q-NH2 (staple 1-4, 4-11) [I-2083] | 3.7 µM
12 | Ac-[αAllylPro]D[tBuAla][B5(4)]D[(CMe2CO2H)TriAzDab]AAFL[PyrS2″][3Thi][Bta]Q-NH2 (staple 1-4, 4-11) [I-2079] | 15.1 µM
13 | Ac-[αAllylPro]D[tBuAla][B5(4)]D[Phe(3-COOH)]AAFF[PyrS2″][Phe(2-CF3)][Bta][dQ]-NH2 (staple 1-4, 4-11) [I-2093] | 5 µM
14 | Ac-[αAllylPro]D[tBuAla][B5(4)]D[(2COOHPh)TriAzDap]AAFL[PyrS2″][3Thi][Bta]Q-NH2 (staple 1-4, 4-11) [I-2086] | 16.4 µM
15 | Ac-[αAllylPro]D[tBuAla][B5(4)]D[(2COOHPh)TriAzDab]AAFL[PyrS2″][3Thi][Bta]Q-NH2 (staple 1-4, 4-11; not fully specified) [I-2080] | 28.8 µM
16 | Ac-[αAllylPro]D[tBuAla][B5(4)]D[Phe(3-COOH)]AAFL[PyrS2″][3Thi][Bta][dQ]-NH2 (staple 1-4, 4-11) [I-2088] | 4.4 µM
